Data published in patent publication US20220348661A1 (HARBOUR BIOMED SHANGHAI, published 2022).

What was measured:
human CD3 = molecular target: T1, human CD3 (human, UniProt P07766 23-207; P09693 23-182; P04234 22-171; P20963 22-164); experiment: flow cytometry on recombinant CHOK1 cells overexpressing human CD3
T1 construct: whole, on cells; SP34 is described as an anti-human CD3e antibody; also called human TCR/CD3 complex; CD3 on human pan-T cells
From the text: The flow cytometryFACS was used to analyse the binding of the CD3 antibody to CD3-expressing cells, where the CD3-expressing cells could be: CHOK1 cells overexpressing human CD3 or HEK 293 cells (plasmids encoding the ORF of γ, δ, ε, and ζ chains of human-derived CD3 and plasmids encoding the ORF of α and β chains of human TCR were co-transfected with host cells CHOK1 (ATCC, CCL-61) or HEK293 (ATCC, CRL-1573) to construct stable cell lines expressing the structure of the human TCR/CD3 complex); CHOK1 or HEK293 cells overexpressing cynomolgus monkey CD3; human pan-T cells (isolated with the human pan-T cell isolation kit (Miltenyi, #130-096-535) from PBMC); cynomolgus monkey pan-T cells. Specifically, the collected cells were washed twice with PBS containing 2% FBS (FACS buffer), and resuspended with FACS buffer, divided into 96 well plates with 1×10⁵ cells per well, centrifuged at 500 g for 5 minutes. The supernatant was discarded, and 100 μl of pre-gradient diluted CD3 antibody was added, then incubating for 1 hour at room temperature and washing twice with FACS buffer. […] The fluorescent luminescence signal value were read by flow cytometry (BD FACS CANTOII or ACEA NovoCyte), and the resulted data were processed and analyzed by software FlowJo v10 (FlowJo, LLC). […]

human ROR1 = molecular target: T2, human ROR1 (human, UniProt Q01973 30-937); experiment: flow cytometry on Panc-1 cells expressing human ROR1
T2 construct: whole, on cells; also called ROR1 on tumor cell Panc-1
Method: (§1) This Example investigates the ability of the bispecific antibody binding tumor cell Panc-1(ATCC, CRL-1469) expressing human ROR1. Specifically, collected cell Panc-1 suspension, adjusted the cell density to 1×10⁶/ml, and inoculated them at 100 μl/well in a 96 well V-bottom plate (Corning, #3894); subsequently, the antibody to be tested with a concentration 2-fold of final concentration obtained by 3-fold gradient dilution was added at volume of 100 μl/well. Cells were incubated at 4° C. in the dark for 2 hours. Afterwards, the cells were rinsed twice with 100 μl/well of pre-chilled PBS, centrifuged at 500 g, 4° C. for 5 minutes. The supernatant was discarded. Then added 100 μl/well of fluorescent secondary antibody Alexa Fluor 488 AffiniPure Goat Anti-Human IgG, Fcγ fragment specific (Jackson ImmunoResearch, #109-545-098), and incubated the cells from light at 4° C. in the dark for 1 hour. Then the cells were rinsed twice with 100 μl/well of pre-chilled PBS, centrifuged at 500 g, for 5 minutes. The supernatant was discarded. Finally, the cells were resuspended with 200 μL/well of pre-chilled PBS. The fluorescent luminescence signal value were read by flow cytometry (BD FACS CANTOII or ACEA NovoCyte), and the resulted data were processed and analyzed by software FlowJo v10 (FlowJo, LLC). […]

human B7H4 = molecular target: T3, human B7H4 (human, UniProt Q7Z7D3 25-282); experiment: flow cytometry on SK-BR-3 cells expressing human B7H4
T3 construct: whole, on cells; also called B7H4 on tumor cell SK-BR-3
T3 sequence (looked up): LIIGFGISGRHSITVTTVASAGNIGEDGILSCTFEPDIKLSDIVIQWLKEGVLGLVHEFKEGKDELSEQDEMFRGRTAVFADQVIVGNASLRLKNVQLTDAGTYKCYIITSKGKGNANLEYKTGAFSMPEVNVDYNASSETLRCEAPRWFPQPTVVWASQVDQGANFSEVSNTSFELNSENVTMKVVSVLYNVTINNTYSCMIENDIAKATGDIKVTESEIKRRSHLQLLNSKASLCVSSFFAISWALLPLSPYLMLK
Method: as §1, with “SK-BR-3 (ATCC, HTB-30)” for “Panc-1(ATCC, CRL-1469)”, “B7H4.” for “ROR1.”, “SK-BR-3” for “Panc-1”, “of” for “of fluorescent”

T2 sequence (Q01973 30-937): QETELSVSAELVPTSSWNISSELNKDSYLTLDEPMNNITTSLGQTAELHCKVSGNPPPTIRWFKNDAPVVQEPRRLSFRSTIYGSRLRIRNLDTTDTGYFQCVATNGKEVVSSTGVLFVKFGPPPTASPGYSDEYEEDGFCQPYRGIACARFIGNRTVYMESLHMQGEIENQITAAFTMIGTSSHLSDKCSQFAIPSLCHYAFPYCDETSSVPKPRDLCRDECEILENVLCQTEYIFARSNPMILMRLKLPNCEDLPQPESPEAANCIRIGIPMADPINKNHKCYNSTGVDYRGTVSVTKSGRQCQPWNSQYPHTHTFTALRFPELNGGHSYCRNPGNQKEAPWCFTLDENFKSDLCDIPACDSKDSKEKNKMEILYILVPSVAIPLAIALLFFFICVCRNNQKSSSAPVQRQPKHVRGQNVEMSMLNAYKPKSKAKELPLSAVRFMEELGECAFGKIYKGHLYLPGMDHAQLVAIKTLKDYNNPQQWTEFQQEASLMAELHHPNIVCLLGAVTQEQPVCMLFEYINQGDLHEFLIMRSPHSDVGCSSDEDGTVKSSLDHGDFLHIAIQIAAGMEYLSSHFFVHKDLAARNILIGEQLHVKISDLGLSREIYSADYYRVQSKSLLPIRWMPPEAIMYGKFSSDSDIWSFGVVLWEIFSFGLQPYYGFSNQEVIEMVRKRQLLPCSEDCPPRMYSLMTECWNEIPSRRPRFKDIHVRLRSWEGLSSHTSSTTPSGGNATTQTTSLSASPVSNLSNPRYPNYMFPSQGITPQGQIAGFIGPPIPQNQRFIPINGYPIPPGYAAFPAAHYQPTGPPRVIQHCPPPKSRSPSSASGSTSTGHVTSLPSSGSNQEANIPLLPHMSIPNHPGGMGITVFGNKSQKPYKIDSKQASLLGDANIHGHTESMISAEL
T1 sequence (P07766 23-207, chain 1 of 4): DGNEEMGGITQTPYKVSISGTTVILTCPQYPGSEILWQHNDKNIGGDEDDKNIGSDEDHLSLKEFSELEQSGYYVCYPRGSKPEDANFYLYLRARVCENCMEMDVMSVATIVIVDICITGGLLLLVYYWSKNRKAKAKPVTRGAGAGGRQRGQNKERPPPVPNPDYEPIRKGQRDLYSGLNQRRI
T1 sequence (P09693 23-182, chain 2 of 4): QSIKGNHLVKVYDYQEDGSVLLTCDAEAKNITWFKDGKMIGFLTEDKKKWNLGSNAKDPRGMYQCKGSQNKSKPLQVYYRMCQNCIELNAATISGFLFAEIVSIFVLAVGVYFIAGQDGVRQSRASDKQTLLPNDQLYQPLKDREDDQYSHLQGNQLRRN
T1 sequence (P04234 22-171, chain 3 of 4): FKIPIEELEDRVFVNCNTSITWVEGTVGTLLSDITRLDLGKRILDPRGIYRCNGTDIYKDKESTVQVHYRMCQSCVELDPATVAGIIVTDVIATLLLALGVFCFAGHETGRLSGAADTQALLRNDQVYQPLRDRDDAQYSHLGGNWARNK
T1 sequence (P20963 22-164, chain 4 of 4): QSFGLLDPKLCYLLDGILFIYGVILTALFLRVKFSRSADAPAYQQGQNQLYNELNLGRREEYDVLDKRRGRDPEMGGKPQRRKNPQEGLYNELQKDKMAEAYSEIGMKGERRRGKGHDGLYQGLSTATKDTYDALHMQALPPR

B1: SP34 murine-human chimeric recombinant antibody PR000260 (antibody, human IgG1, lambda, L234A L235A, V domains shown)
VH: EVQLVESGGGLVQPKGSLKLSCAASGFTFNTYAMNWVRQAPGKGLEWVARIRSKYNNYATYYADSVKDRFTISRDDSQSILYLQMNNLKTEDTAMYYCVRHGNFGNSYVSWFAYWGQGTLVTVSA
VL: QAVVTQESALTTSPGETVTLTCRSSTGAVTTSNYANWVQEKPDHLFTGLIGGTNKRAPGVPARFSGSLIGDKAALTITGAQTEDEAIYFCALWYSNLWVFGGGTKLTVLG
notes: IgG1 LALA, lambda; made in HEK293; also called SP34 chimeric antibody; PR000260(SP34)
- binding result (human CD3): binds

B2: ROR1 antibody PR000374 (antibody, human IgG1, kappa, V domains shown)
VH: EVQLVESGGGLVQPGRSLRLSCTASGSDINDYPITWVRQAPGQGLEWIGFINSGGSTWYASWVKGRFTISRDDSKSIAYLQMNSLKTEDTAVYYCARGYSTYYRDFNIWGQGTLVTVSS
VL: DIQMTQSPSSLSASVGDRVTINCQASQSIDSNLAWFQQKPGQPPKLLIYRASNLASGVPDRFSGSGSGTDFTLTISSLEAEDVATYYCLGGVGAVSYRTSFGGGTKVEIKR
notes: variable region derived from WO2016094873; also called recombinant IgG antibody PR000374
- binding result (human ROR1): binds

B3: B7H4 antibody PR000014 (antibody, V domains shown)
VH: EVQLVQSGAEVKKPGASVKVSCKASGYTFTSYWIGWVRQAPGQGLEWIGDIYPGGGYTNYNEKFKGRVTITRDTSTSTAYLELSSLRSEDTAVYYCARLAGSSYRGAMDSWGQGTLVTVSS
VL: DIQMTQSPSSLSASVGDRVTITCKASQGFNKYVAWYQQKPGKAPKLLIYYTSTLQPGVPSRFSGSGSGRDYTLTISSLQPEDFATYYCLQYGDLLYAFGQGTKVEIKR
notes: variable region derived from WO2016040724; also called recombinant IgG antibody PR000014
- binding result (human B7H4): binds
